# Results published in patent US20210380703A1 (RIGEL PHARMACEUTICALS, published 2021).
# Columns and labels:
# Goat anti-Human Kappa = target: T1, Goat anti-Human Kappa; test: ELISA, positive control
# T1 construct: Positive control of the ELISA; also called biotinylated goat anti-human kappa light chain
# Procedure, shortened: (§1)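 Monoclonal antibodies were first applied to human or mouse ACVR2A, alongside biotinylated goat anti-human kappa light chain (positive control) and human Fc (negative control); binding was then determined by ELISA.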
# Mouse ACVR2A = Mouse ACVR2A (mouse, UniProt P27038 20-135, limits assumed); test: ELISA
# Procedure, shortened: as §1
# Human ACVR2A = target: T2, Human ACVR2A (human, UniProt P27037 20-135, limits assumed); test: ELISA
# T2 construct: also called activin receptor, type II A
# Procedure, shortened: as §1
# Further: test concentration or dose not given here.
# Mouse ACVR2A, sequence (P27038 20-135 limits assumed): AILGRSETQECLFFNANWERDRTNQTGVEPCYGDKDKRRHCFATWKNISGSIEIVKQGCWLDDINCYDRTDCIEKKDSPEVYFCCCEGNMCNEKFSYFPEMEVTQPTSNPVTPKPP
# T2 sequence (P27037 20-135 limits assumed): as the sequence (P27038 20-135 limits assumed) above, with R20K, I73V counted along it
Binder,optical density (Goat anti-Human Kappa) [OD],optical density (Mouse ACVR2A) [OD],optical density (Human ACVR2A) [OD]
"370_G06 (antibody, V domains shown) VH: EVQLLESGGGLVQPGGSLRLSCAASGFTFSDYGMHWVRQAPGKGLEWVSSINYNGGYTSYADSVKGRFTISRDNSKNTLYLQMNSLRAEDTAVYYCARSANWHDTALDYWGQGTLVTVSS VL: DIQMTQSPSSLSASVGDRVTITCRASQSILSYVNWYQQKPGKAPKLVIYAATSRASGVPSRFSGSGSGTDFTLTISSLQPEDFATYYCQQSDNTPLTFGGGTKVEIK",3.41,2.33,2.19
"371_A03 (antibody, V domains shown) VH: EVQLLESGGGLVQPGGSLRLSCAASGFTFSDYGMNWVRQAPGKGLEWVANINYNGGYTGYADSVKGRFTISRDNSKNTLYLQMNSLRAEDTAVYYCARSANWHDTALDYWGQGTLVTVSS VL: DIQMTQSPSSLSASVGDRVTITCRASQSILSYLNWYQQKPGKAPKLVIYATTSRASGVPSRFSGSGSGTDFTLTISSLQPEDFATYYCQQSYESPLTFGGGTKVEIK",3.56,2.62,2.84
"370_H01 (antibody, V domains shown) VH: EVQLLESGGGLVQPGGSLRLSCAASGFTFSSYSMNWVRQAPGKGLEWVSGINYNSGYKGYADSVKGRFTISRDNSKNTLYLQMNSLRAEDTAVYYCARSANWHDTALDYWGQGTLVTVSS VL: DIQMTQSPSSLSASVGDRVTITCRASQSIISYLNWYQQKPGKAPKLLIYAVTSRASGVPSRFSGSGSGTDFTLTISSLQPEDFATYYCQQSYDTPLTFGGGTKVEIK",3.65,3.18,3.31
"371_A06 (antibody, V domains shown) VH: EVQLLESGGGLVQPGGSLRLSCAASGFTFSSYGMNWVRQAPGKGLEWVAGINYNGGYTSYADSVKGRFTISRDNSKNTLYLQMNSLRAEDTAVYYCARSANWHDTALDYWGQGTLVTVSS VL: DIQMTQSPSSLSASVGDRVTITCRASQSILTYLNWYQQKPGKAPKLVIYAATSRHSGVPSRFSGSGSGTDFTLTISSLQPEDFATYYCQQSYDSPLTFGGGTKVEIK",3.51,2.79,2.65
"371_B06 (antibody, V domains shown) VH: EVQLLESGGGLVQPGGSLRLSCAASGFTFDSYSMNWVRQAPGKGLEWVAGINYNGGYKSYADSVKGRFTISRDNSKNTLYLQMNSLRAEDTAVYYCARSANWHDTALDYWGQGTLVTVSS VL: DIQMTQSPSSLSASVGDRVTITCRASQSILTYVNWYQQKPGKAPKLVIYAATSRHSGVPSRFSGSGSGTDFTLTISSLQPEDFATYYCQQSYNLPLTFGGGTKVEIK",3.3,2.71,2.69
"371_A08 (antibody, V domains shown) VH: EVQLLESGGGLVQPGGSLRLSCAASGFTFSSYGMHWVRQAPGKGLEWVSSINYNGGYTSYADSVKGRFTISRDNSKNTLYLQMNSLRAEDTAVYYCARSANWHDTALDYWGQGTLVTVSS VL: DIQMTQSPSSLSASVGDRVTITCRASQSILSYLNWYQQKPGKAPKLVIYAATSRASGVPSRFSGSGSGTDFTLTISSLQPEDFATYYCQQSYELPLTFGGGTKVEIK",2.44,1.16,1.06
"370_G09 (antibody, V domains shown) VH: EVQLLESGGGLVQPGGSLRLSCAASGFTFSSYGMNWVRQAPGKGLEWVAGINYNGGYKSYADSVKGRFTISRDNSKNTLYLQMNSLRAEDTAVYYCARSANWHDTALDYWGQGTLVTVSS VL: DIQMTQSPSSLSASVGDRVTITCRASQSILSYVNWYQQKPGKAPKLVIYAATSRASGVPSRFSGSGSGTDFTLTISSLQPEDFATYYCQQSYESPLTFGGGTKVEIK",3.64,3.14,3.01
"370_G11 (antibody, V domains shown) VH: EVQLLESGGGLVQPGGSLRLSCAASGFTFSSYSMNWVRQAPGKGLEWVASINYNSGYTSYADSVKGRFTISRDNSKNTLYLQMNSLRAEDTAVYYCARSANWHDTHLDYWGQGTLVTVSS VL: DIQMTQSPSSLSASVGDRVTITCRASQSIVSYLNWYQQKPGKAPKLVIYAATSRASGVPSRFSGSGSGTDFTLTISSLQPEDFATYYCQQSYSLPLTFGGGTKVEIK",3.72,3.07,2.98
"371_B07 (antibody, V domains shown) VH: EVQLLESGGGLVQPGGSLRLSCAASGFTFDSYSMNWVRQAPGKGLEWVAGINYNGGYTSYADSVKGRFTISRDNSKNTLYLQMNSLRAEDTAVYYCARSANWHDTALDYWGQGTLVTVSS VL: DIQMTQSPSSLSASVGDRVTITCRASQSILTYVNWYQQKPGKAPKLLIYAATSRASGVPSRFSGSGSGTDFTLTISSLQPEDFATYYCQQSYELPLTFGGGTKVEIK",3.33,3.04,2.78
"370_H09 (antibody, V domains shown) VH: EVQLLESGGGLVQPGGSLRLSCAASGFTFSSYGMNWVRQAPGKGLEWVANINYNGGYTSYADSVKGRFTISRDNSKNTLYLQMNSLRAEDTAVYYCARSANWHDTALDYWGQGTLVTVSS VL: DIQMTQSPSSLSASVGDRVTITCRASQSIVSYVNWYQQKPGKAPKLLIYAATSRASGVPSRFSGSGSGTDFTLTISSLQPEDFATYYCQQSYDNPLTFGGGTKVEIK",3.54,3.28,2.95
"371_A12 (antibody, V domains shown) VH: EVQLLESGGGLVQPGGSLRLSCAASGFTFDSYSMNWVRQAPGKGLEWVAGINYNSGYTSYADSVKGRFTISRDNSKNTLYLQMNSLRAEDTAVYYCARSANWHDTALDYWGQGTLVTVSS VL: DIQMTQSPSSLSASVGDRVTITCRASQSILSYVNWYQQKPGKAPKLVIYAATSLASGVPSRFSGSGSGTDFTLTISSLQPEDFATYYCQQSYDTPLTFGGGTKVEIK",3.63,3.3,3.17
"370_G10 (antibody, V domains shown) VH: EVQLLESGGGLVQPGGSLRLSCAASGFTFSDYGMNWVRQAPGKGLEWVSGINYNSGYTSYADSVKGRFTISRDNSKNTLYLQMNSLRAEDTAVYYCARSANWHDTALDYWGQGTLVTVSS VL: DIQMTQSPSSLSASVGDRVTITCRASQSISSYLNWYQQKPGKAPKLLIYVVNNRASGVPSRFSGSGSGTDFTLTISSLQPEDFATYYCQQSYENPLTFGGGTKVEIK",3.49,2.74,2.98
"371_A07 (antibody, V domains shown) VH: EVQLLESGGGLVQPGGSLRLSCAASGFTFSDYSMNWVRQAPGKGLEWVSNINYNGGYKSYADSVKGRFTISRDNSKNTLYLQMNSLRAEDTAVYYCARSANWHDTALDYWGQGTLVTVSS VL: DIQMTQSPSSLSASVGDRVTITCRASQSILSYLNWYQQKPGKAPKLVIYATTSRASGVPSRFSGSGSGTDFTLTISSLQPEDFATYYCQQSYDLPLTFGGGTKVEIK",3.65,3.06,2.88

# The remaining lines, values ahead:
optical density (Goat anti-Human Kappa) [OD],optical density (Mouse ACVR2A) [OD],optical density (Human ACVR2A) [OD],Binder
3.6,3.24,3.01,"371_C03 (antibody, V domains shown) VH: EVQLLESGGGLVQPGGSLRLSCAASGFTFSSYSMNWVRQAPGKGLEWVSNINYNGGYKGYADSVKGRFTISRDNSKNTLYLQMNSLRAEDTAVYYCARSANWHDTALDYWGQGTLVTVSS VL: DIQMTQSPSSLSASVGDRVTITCRASQSILSYLNWYQQKPGKAPKLVIYATTSRASGVPSRFSGSGSGTDFTLTISSLQPEDFATYYCQQSYSTPLTFGGGTKVEIK"
3.68,2.62,2.41,"371_F01 (antibody, V domains shown) VH: EVQLLESGGGLVQPGGSLRLSCAASGFTFSSYSMNWVRQAPGKGLEWVAGINYNGGYTGYADSVKGRFTISRDNSKNTLYLQMNSLRAEDTAVYYCARSANWHDTALDYWGQGTLVTVSS VL: DIQMTQSPSSLSASVGDRVTITCRASQSILTYVNWYQQKPGKAPKLVIYAATSLASGVPSRFSGSGSGTDFTLTISSLQPEDFATYYCQQSYNNPLTFGGGTKVEIK"
3.46,2.79,2.41,"371_F06 (antibody, V domains shown) VH: EVQLLESGGGLVQPGGSLRLSCAASGFTFDSYSMNWVRQAPGKGLEWVANINYNGGYTSYADSVKGRFTISRDNSKNTLYLQMNSLRAEDTAVYYCARSANWHDTALDYWGQGTLVTVSS VL: DIQMTQSPSSLSASVGDRVTITCRASQSIVSYLNWYQQKPGKAPKLVIYAATSRHSGVPSRFSGSGSGTDFTLTISSLQPEDFATYYCQQSYNSPLTFGGGTKVEIK"
3.66,3.1,2.95,"371_F04 (antibody, V domains shown) VH: EVQLLESGGGLVQPGGSLRLSCAASGFTFDSYSMNWVRQAPGKGLEWVAGINYNSGYKGYADSVKGRFTISRDNSKNTLYLQMNSLRAEDTAVYYCARSANWHDTALDYWGQGTLVTVSS VL: DIQMTQSPSSLSASVGDRVTITCRASQSILSYLNWYQQKPGKAPKLLIYAATSRHSGVPSRFSGSGSGTDFTLTISSLQPEDFATYYCQQSYNNPLTFGGGTKVEIK"
3.32,1.55,1.48,"371_D06 (antibody, V domains shown) VH: EVQLLESGGGLVQPGGSLRLSCAASGFTFDDYSMNWVRQAPGKGLEWVAGINYNGGYTSYADSVKGRFTISRDNSKNTLYLQMNSLRAEDTAVYYCARSANWHDTALDYWGQGTLVTVSS VL: DIQMTQSPSSLSASVGDRVTITCRASQSIISYVNWYQQKPGKAPKLLIYAATSRASGVPSRFSGSGSGTDFTLTISSLQPEDFATYYCQQSYSTPLTFGGGTKVEIK"
2.17,2.94,2.89,"371_D09 (antibody, V domains shown) VH: EVQLLESGGGLVQPGGSLRLSCAASGFTFSSYSMNWVRQAPGKGLEWVSNINYNSGYTGYADSVKGRFTISRDNSKNTLYLQMNSLRAEDTAVYYCARSANWHDTALDYWGQGTLVTVSS VL: DIQMTQSPSSLSASVGDRVTITCRASQSILTYLNWYQQKPGKAPKLVIYAATSRASGVPSRFSGSGSGTDFTLTISSLQPEDFATYYCQQSYNNPLTFGGGTKVEIK"
